Test results taken from patent US8183201B2 (priority 2006, dated 2012).

How the values were obtained:
[1] = target: T1, integrin α5β1 (Homo sapiens, UniProt P05556+P08648); type: cell-based
T1 construct: Human erythroleukemia K562 cells were purchased from ATCC; host or cells: K562

[2] = system: osteoclast precursors (bone marrow hematopoietic cells); type: cell-based, SD rats; conditions: read-out: IC50 Osteoclastogenesis
[3] = system: osteoarthritic rats; conditions: rat, in vivo
[4] = system: osteoarthritic mice; conditions: mouse, in vivo
[5] = target: T2, Insulin (Rattus norvegicus, UniProt P15127); type: binding
T2 construct: MDS Pharma services, Taipei, Taiwan (contract assay)
T2 sequence (P15127 27-1383): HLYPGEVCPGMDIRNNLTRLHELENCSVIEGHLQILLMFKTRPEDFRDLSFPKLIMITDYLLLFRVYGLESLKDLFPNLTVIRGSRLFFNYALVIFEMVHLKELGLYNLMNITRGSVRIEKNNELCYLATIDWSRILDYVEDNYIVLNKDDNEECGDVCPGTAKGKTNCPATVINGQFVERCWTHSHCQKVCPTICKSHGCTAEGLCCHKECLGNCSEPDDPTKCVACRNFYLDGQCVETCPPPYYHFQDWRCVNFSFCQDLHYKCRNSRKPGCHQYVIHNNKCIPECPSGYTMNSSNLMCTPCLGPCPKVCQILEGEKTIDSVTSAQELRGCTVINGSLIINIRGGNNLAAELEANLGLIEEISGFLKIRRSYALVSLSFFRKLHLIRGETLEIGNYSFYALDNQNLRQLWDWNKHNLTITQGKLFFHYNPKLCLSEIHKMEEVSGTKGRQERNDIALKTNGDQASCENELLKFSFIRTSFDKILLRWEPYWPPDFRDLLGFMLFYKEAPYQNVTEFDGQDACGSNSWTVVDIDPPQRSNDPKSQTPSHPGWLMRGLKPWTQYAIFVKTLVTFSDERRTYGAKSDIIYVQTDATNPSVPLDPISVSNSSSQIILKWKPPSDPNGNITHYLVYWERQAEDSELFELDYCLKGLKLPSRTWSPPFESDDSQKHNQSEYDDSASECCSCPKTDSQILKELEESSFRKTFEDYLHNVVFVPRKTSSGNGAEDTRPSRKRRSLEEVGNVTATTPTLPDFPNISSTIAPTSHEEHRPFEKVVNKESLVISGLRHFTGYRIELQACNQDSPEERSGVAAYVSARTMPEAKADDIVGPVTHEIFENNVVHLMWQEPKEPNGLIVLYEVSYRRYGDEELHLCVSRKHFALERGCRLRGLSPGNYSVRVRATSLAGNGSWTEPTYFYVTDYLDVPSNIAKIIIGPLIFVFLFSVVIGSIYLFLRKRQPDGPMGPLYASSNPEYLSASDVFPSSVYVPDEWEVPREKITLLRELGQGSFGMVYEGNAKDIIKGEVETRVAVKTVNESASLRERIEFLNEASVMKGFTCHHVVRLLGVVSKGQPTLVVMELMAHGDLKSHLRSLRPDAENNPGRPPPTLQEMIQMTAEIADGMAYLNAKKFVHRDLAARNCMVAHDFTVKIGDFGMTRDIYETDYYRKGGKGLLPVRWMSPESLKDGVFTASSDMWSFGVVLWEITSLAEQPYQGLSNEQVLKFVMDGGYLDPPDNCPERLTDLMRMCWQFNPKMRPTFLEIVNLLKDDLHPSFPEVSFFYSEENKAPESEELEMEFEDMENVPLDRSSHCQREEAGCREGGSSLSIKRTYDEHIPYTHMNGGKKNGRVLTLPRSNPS

[6] = target: T3, Leptin (Homo sapiens, UniProt P48357); type: binding
T3 construct: MDS Pharma services, Taipei, Taiwan (contract assay)
T3 sequence (P48357 22-1165): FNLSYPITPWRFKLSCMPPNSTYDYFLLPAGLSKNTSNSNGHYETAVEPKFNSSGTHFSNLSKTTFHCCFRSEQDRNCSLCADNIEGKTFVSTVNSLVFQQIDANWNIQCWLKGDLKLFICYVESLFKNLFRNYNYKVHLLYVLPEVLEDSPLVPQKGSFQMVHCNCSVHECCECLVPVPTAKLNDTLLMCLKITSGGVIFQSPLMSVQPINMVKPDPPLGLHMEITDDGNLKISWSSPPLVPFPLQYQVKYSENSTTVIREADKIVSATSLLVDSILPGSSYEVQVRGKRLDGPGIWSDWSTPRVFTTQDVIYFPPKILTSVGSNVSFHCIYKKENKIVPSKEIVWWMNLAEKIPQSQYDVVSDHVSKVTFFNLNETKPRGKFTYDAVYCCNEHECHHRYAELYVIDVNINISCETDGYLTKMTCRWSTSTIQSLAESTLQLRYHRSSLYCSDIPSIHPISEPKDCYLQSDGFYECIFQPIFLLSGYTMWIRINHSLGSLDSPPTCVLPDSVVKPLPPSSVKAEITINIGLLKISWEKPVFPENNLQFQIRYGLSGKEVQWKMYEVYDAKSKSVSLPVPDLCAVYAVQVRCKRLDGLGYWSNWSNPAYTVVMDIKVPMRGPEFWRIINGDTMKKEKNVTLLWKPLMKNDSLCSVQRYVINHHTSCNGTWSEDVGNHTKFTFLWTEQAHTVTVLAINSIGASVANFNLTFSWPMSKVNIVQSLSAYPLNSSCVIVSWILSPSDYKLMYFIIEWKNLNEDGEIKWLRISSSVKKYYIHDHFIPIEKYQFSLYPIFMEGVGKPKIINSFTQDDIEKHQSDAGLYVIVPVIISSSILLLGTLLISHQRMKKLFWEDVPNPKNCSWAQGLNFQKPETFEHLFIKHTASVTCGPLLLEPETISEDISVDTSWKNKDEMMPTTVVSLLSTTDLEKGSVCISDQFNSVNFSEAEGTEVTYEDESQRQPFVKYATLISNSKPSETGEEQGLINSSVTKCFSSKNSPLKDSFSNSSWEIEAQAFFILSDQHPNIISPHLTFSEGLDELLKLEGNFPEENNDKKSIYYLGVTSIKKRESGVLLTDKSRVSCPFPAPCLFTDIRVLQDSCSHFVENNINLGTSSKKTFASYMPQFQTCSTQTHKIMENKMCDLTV

[7] = system: TNF; type: binding
[8] = system: hypoxic-induced angiogenesis; design: species or system mice; conditions: mouse, in vivo
[9] = mouse, in vivo
[10] = mouse, in vivo, iv, 30 mg/kg

T1 sequence (P08648 42-894 limits assumed): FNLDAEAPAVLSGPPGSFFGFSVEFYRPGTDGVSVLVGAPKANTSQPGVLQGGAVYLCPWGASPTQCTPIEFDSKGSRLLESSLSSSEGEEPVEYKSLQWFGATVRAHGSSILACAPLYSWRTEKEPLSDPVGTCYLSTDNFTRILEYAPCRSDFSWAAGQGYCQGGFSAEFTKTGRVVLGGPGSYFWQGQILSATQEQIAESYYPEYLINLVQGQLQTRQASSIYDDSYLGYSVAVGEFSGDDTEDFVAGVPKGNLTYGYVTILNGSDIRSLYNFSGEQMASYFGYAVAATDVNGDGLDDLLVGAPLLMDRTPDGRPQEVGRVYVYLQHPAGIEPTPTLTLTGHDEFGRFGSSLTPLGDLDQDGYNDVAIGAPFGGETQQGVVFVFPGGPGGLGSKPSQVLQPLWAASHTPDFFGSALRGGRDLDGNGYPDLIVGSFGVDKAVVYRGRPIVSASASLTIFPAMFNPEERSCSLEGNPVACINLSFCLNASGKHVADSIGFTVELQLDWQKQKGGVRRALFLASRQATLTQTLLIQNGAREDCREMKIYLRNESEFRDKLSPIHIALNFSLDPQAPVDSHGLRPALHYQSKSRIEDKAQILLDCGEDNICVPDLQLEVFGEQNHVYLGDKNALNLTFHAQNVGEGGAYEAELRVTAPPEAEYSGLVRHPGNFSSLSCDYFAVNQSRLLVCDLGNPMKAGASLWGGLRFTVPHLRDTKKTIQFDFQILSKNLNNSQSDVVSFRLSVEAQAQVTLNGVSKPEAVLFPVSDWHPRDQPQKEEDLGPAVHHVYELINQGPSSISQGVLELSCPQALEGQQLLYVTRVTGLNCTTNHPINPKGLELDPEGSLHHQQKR
T1 sequence (P08648 895-1049 partner limits assumed): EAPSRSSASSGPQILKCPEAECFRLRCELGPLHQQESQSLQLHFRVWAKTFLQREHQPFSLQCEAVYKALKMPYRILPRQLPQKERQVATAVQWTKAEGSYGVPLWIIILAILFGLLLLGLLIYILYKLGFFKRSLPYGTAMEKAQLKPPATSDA
T1 sequence (P05556 21-798): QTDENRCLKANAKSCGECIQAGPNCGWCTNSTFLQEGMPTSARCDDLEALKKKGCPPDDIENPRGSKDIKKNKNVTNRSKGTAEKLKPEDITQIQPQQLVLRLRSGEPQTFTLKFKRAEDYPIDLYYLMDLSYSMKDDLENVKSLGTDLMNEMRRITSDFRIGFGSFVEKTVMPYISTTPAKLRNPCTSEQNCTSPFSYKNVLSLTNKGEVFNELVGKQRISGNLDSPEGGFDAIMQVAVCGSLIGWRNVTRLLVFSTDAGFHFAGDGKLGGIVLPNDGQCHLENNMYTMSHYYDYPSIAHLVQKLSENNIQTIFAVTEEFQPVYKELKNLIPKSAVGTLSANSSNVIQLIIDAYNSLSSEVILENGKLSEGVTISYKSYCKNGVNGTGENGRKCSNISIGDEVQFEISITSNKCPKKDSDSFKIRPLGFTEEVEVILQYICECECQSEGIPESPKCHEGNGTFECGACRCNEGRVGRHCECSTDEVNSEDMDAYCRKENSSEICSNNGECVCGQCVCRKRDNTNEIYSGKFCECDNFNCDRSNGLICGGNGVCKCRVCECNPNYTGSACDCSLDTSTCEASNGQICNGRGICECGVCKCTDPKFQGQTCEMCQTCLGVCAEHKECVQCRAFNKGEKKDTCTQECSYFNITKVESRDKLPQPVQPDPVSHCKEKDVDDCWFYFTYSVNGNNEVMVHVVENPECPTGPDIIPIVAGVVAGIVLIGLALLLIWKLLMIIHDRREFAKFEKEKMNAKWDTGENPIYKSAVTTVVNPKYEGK

Substance: RD: rhodostomin variant having a RGD motif variant ^48PRLDMP^53, SEQ ID NO: 36
- increase of IC50 in inhibition of integrin α5β1 as compared to Rho [1]: > 10 fold
- IC50 [2]: 3.32 nM
- osteoarthritis-induced elevation of serum cytokines (c-reactive protein, IL-1β, IL-6) [3]: markedly inhibited the osteoarthritis-induced elevation of cytokines
- osteoarthritis-induced elevation of serum cytokines (c-reactive protein, IL-1, IL-6) [4]: markedly inhibited the osteoarthritis-induced elevation of cytokines
- Inhibition, Insulin [5]: −6%
- Inhibition, Leptin [6]: 1%
- Inhibition, TNF [7]: 4%
- reduction of angiogenesis (blood vessel profiles in the inner retina) compared to vehicle ROP group [8]: about 46%
- effect on tail bleeding (clotting) time [9]: only slightly affected the clotting time
- survival of mice [10]: did not affect the survival of mice
